Source: patent publication US20240350835A1 (AMBRX, published 2024)
Numbering of substitutions follows the chain as printed.

B1: Humanized Anti-PSMA Antibody Variant 1 ADC, MMAE payload, Non-Cleavable (PEG3) linker (antibody, human IgG1, kappa, V domains shown)
VH: QVQLVQSGAEVKKPGASVKVSCKASGYTFTEYTIHWVRQAPGQRLEWMGNINPNNGGTTYNQKFEDRVTITRDTSASTAYMELSSLRSEDTAVYYCAAGWNFDYWGQGTTLTVSS
VL: DIQLTQSPSFLSASVGDRVTITCKASQDVGTAVDWYQQKPGKAPKLLIYWASTRHTGVPSRFSGSGSGTEFTLTISSLQPEDFATYYCQQYNSYPLTFGGGTKVEIKR
modifications: para-acetyl phenylalanine (pAF) at position A114 (Kabat numbering; first residue of the heavy chain constant region), conjugated to non-cleavable (PEG3) MMAE drug-linker
B2: Humanized Anti-PSMA Antibody Variant 1 ADC, MMAE payload, Short Cleavable (Valine-Citruline-Acetyl) linker (antibody, human IgG1, kappa, V domains shown)
VH: B1 VH
VL: B1 VL
modifications: para-acetyl phenylalanine (pAF) at position A114 (Kabat numbering; first residue of the heavy chain constant region), conjugated to short cleavable (Valine-Citruline-Acetyl) MMAE drug-linker
B3: Humanized Anti-PSMA Antibody Variant 2 ADC, MMAE payload, Non-Cleavable (PEG3) linker (antibody, human IgG1, kappa, V domains shown)
VH: B1 VH
VL: B1 VL with P80S
modifications: para-acetyl phenylalanine (pAF) at position A114 (Kabat numbering; first residue of the heavy chain constant region), conjugated to non-cleavable (PEG3) MMAE drug-linker
B4: Humanized Anti-PSMA Antibody Variant 2 ADC, MMAF payload, Short Cleavable (Valine-Citruline-Acetyl) linker (antibody, human IgG1, kappa, V domains shown)
VH: B1 VH
VL: B1 VL with P80S
modifications: para-acetyl phenylalanine (pAF) at position A114 (Kabat numbering; first residue of the heavy chain constant region), conjugated to short cleavable (Valine-Citruline-Acetyl) MMAF drug-linker
B5: Humanized Anti-PSMA Antibody Variant 1 ADC, MMAF payload, Short Cleavable (Valine-Citruline-Acetyl) linker (antibody, human IgG1, kappa, V domains shown)
VH: B1 VH
VL: B1 VL
modifications: para-acetyl phenylalanine (pAF) at position A114 (Kabat numbering; first residue of the heavy chain constant region), conjugated to short cleavable (Valine-Citruline-Acetyl) MMAF drug-linker
B6: Humanized Anti-PSMA Antibody Variant 2 ADC, MMAF payload, Non-Cleavable (PEG3) linker (antibody, human IgG1, kappa, V domains shown)
VH: B1 VH
VL: B1 VL with P80S
modifications: para-acetyl phenylalanine (pAF) at position A114 (Kabat numbering; first residue of the heavy chain constant region), conjugated to non-cleavable (PEG3) MMAF drug-linker
B7: Humanized Anti-PSMA Antibody Variant 1 ADC, MMAF payload, Cleavable (Val-Citruline-PEG1) linker (antibody, human IgG1, kappa, V domains shown)
VH: B1 VH
VL: B1 VL
modifications: para-acetyl phenylalanine (pAF) at position A114 (Kabat numbering; first residue of the heavy chain constant region), conjugated to cleavable (Val-Citruline-PEG1) MMAF drug-linker
B8: Humanized Anti-PSMA Antibody Variant 1 ADC, MMAF payload, Non-Cleavable (PEG3) linker (antibody, human IgG1, kappa, V domains shown)
VH: B1 VH
VL: B1 VL
modifications: para-acetyl phenylalanine (pAF) at position A114 (Kabat numbering; first residue of the heavy chain constant region), conjugated to non-cleavable (PEG3) MMAF drug-linker
B9: Humanized Anti-PSMA Antibody Variant 2 ADC, MMAF payload, Cleavable (Val-Citruline-PEG1) linker (antibody, human IgG1, kappa, V domains shown)
VH: B1 VH
VL: B1 VL with P80S
modifications: para-acetyl phenylalanine (pAF) at position A114 (Kabat numbering; first residue of the heavy chain constant region), conjugated to cleavable (Val-Citruline-PEG1) MMAF drug-linker
B10: Humanized Anti-PSMA Antibody Variant 2 ADC, MMAE payload, Short Cleavable (Valine-Citruline-Acetyl) linker (antibody, human IgG1, kappa, V domains shown)
VH: B1 VH
VL: B1 VL with P80S
modifications: para-acetyl phenylalanine (pAF) at position A114 (Kabat numbering; first residue of the heavy chain constant region), conjugated to short cleavable (Valine-Citruline-Acetyl) MMAE drug-linker
B11: Humanized Anti-PSMA (full length) Variant 4 (antibody, human IgG1, kappa, V domains shown)
VH: B1 VH
VL: B1 VL with S77N
notes: Humanized J591 (CDR graft), full length; expressed transiently in HEK293 cells, supernatant tested by FACS on LnCap cells; also called humanized anti-PSMA variant 4
B12: Humanized Anti-PSMA (full length) Variant 2 (antibody, human IgG1, kappa, V domains shown)
VH: B1 VH
VL: B1 VL with P80S
notes: Humanized J591 (CDR graft), full length; expressed transiently in HEK293 cells, supernatant tested by FACS on LnCap cells; also called humanized anti-PSMA variant 2; Humanized Anti-PSMA Antibody Variant 2
B13: Humanized Anti-PSMA (full length) Variant 3 (antibody, human IgG1, kappa, V domains shown)
VH: B1 VH
VL: B1 VL with S60D
notes: Humanized J591 (CDR graft), full length; expressed transiently in HEK293 cells, supernatant tested by FACS on LnCap cells; also called humanized anti-PSMA variant 3
B14: Chimeric Anti-PSMA Antibody ADC, MMAF payload, Non-Cleavable (PEG3) linker (antibody, human IgG1, kappa, V domains shown)
VH: EVQLQQSGPELVKPGTSVRISCKTSGYTFTEYTIHWVKQSHGKSLEWIGNINPNNGGTTYNQKFEDKATLTVDKSSSTAYMELRSLTSEDSAVYYCAAGWNFDYWGQGTTLTVSS
VL: DIVMTQSHKFMSTSVGDRVSIICKASQDVGTAVDWYQQKPGQSPKLLIYWASTRHTGVPDRFTGSGSGTDFTLTITNVQSEDLADYFCQQYNSYPLTFGAGTKVEIKR
modifications: para-acetyl phenylalanine (pAF) at position A114 (Kabat numbering; first residue of the heavy chain constant region), conjugated to non-cleavable (PEG3) MMAF drug-linker
B15: Chimeric Anti-PSMA Antibody ADC, MMAE payload, Non-Cleavable (PEG3) linker (antibody, human IgG1, kappa, V domains shown)
VH: B14 VH
VL: B14 VL
modifications: para-acetyl phenylalanine (pAF) at position A114 (Kabat numbering; first residue of the heavy chain constant region), conjugated to non-cleavable (PEG3) MMAE drug-linker
B16: Chimeric Anti-PSMA Antibody ADC, MMAE payload, Short Cleavable (Valine-Citruline-Acetyl) linker (antibody, human IgG1, kappa, V domains shown)
VH: B14 VH
VL: B14 VL
modifications: para-acetyl phenylalanine (pAF) at position A114 (Kabat numbering; first residue of the heavy chain constant region), conjugated to short cleavable (Valine-Citruline-Acetyl) MMAE drug-linker
B17: Chimeric Anti-PSMA Antibody ADC, MMAF payload, Cleavable (Val-Citruline-PEG1) linker (antibody, human IgG1, kappa, V domains shown)
VH: B14 VH
VL: B14 VL
modifications: para-acetyl phenylalanine (pAF) at position A114 (Kabat numbering; first residue of the heavy chain constant region), conjugated to cleavable (Val-Citruline-PEG1) MMAF drug-linker
B18: Chimeric Anti-PSMA Antibody ADC, MMAF payload, Short Cleavable (Valine-Citruline-Acetyl) linker (antibody, human IgG1, kappa, V domains shown)
VH: B14 VH
VL: B14 VL
modifications: para-acetyl phenylalanine (pAF) at position A114 (Kabat numbering; first residue of the heavy chain constant region), conjugated to short cleavable (Valine-Citruline-Acetyl) MMAF drug-linker

Key:
[1] = biological target: T1, prostate specific membrane antigen (PSMA) (UniProt Q04609 1-750, limits assumed); assay: cell-based or functional assay
T1 sequence (Q04609 whole entry): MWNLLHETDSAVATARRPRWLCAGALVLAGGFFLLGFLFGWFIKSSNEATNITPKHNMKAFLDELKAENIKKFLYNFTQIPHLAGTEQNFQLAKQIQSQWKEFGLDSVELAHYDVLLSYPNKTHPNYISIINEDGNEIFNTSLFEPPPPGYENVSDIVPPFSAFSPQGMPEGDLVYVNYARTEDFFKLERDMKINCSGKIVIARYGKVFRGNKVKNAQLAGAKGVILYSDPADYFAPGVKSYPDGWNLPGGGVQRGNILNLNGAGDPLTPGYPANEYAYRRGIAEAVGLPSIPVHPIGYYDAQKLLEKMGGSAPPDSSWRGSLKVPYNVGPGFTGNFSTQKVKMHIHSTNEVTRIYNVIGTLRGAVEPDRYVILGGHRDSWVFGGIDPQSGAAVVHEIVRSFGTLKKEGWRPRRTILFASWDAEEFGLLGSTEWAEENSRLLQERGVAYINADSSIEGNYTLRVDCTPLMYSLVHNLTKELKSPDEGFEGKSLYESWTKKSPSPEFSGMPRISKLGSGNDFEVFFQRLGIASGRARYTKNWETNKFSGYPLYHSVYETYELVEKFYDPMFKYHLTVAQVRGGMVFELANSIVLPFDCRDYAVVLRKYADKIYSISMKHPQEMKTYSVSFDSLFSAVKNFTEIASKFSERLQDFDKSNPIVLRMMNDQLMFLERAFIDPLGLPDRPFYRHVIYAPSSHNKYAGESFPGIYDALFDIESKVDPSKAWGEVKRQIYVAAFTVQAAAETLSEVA

[2] = biological target: T1, prostate specific membrane antigen …; assay: FACS, HEK293 supernatants on LnCap cells expressing PSMA
Description: Example 2: Antibody Humanization-Parental mouse J591 (Liu et al., Cancer Research, 57, […], 1997) antibody was humanized by selecting human frameworks based on sequence identity with the mouse framework sequence. The light chain and heavy chain CDRs from the mouse antibody were grafted onto the human frameworks, respectively, and analyzed for binding to PSMA antigen. Humanized variants were generated by pairing four human heavy chain frameworks with six light chain frameworks. The variants were expressed transiently in HEK293 cells and the supernatants were tested for binding to the PSMA antigen expressed in LnCap cells by FACS. Table 4 describes a selected heavy chain variable region sequence and 4 light chain variable region sequences used for further studies. […] ID Nos: 8 and the light chain sequence of SEQ. […] ID Nos: 10 and the light chain sequence of SEQ. […] ID Nos: 12 and the light chain sequence of SEQ. […] ID Nos: 14 and the light chain sequence of SEQ. ID Nos: 15.

Row | Binder | Cell Killing (%), C4-2 cell line [1] [%] | IC50 (nM), in vitro cell killing in C4-2 cell line (Cell Titer Glo, 96 h) [1] [nM] | binding result [2]
1 | B1 | 64.5 | 11.3 | –
2 | B2 | 81.5 | 0.542 | –
3 | B3 | 67 | 12.5 | –
4 | B4 | 91 | 0.053 | –
5 | B5 | 92 | 0.064 | –
6 | B6 | 81 | 0.503 | –
7 | B7 | 91 | 0.066 | –
8 | B8 | 80.5 | 0.543 | –
9 | B9 | 91 | 0.051 | –
10 | B10 | 81.5 | 0.52 | –
11 | B11 | – | – | binds
12 | B12 | – | – | binds
13 | B13 | – | – | binds
14 | B14 | 89.5 | 0.295 | –
15 | B15 | 62.5 | 10.2 | –
16 | B16 | 82.5 | 0.425 | –
17 | B17 | 89.5 | 0.047 | –
18 | B18 | 94.5 | 0.049 | –
